In patent US20190218268A1 (INDIANA UNIVERSITY RESEARCH AND TECHNOLOGY, published 2019):
Square brackets hold non-standard residues; d marks the D form. Ends that are not written are not given here. 3Pal = N[C@@H](Cc1cccnc1)C(=O)O; 4Pal = N[C@@H](Cc1ccncc1)C(=O)O; Aib = CC(C)(N)C(=O)O

B1: Glucagon analog 7 (peptide)
peptide: HSQGTFTSD[3Pal]SK[3Pal]LD[Aib]RRAQDFVQWLMNT
B2: Glucagon analog 10 (peptide)
peptide: HSQGT[4Pal]TSD[4Pal]SK[4Pal]LD[Aib]RRAQDFVQWLMNT
B3: Glucagon analog 5 (peptide)
peptide: HSQGTFTSDYSK[3Pal]LD[Aib]RRAQDFVQWLMNT
B4: Glucagon analog 11 (peptide)
peptide: HSQGT[3Pal]TSD[3Pal]SK[3Pal]LD[Aib]RRAQD[3Pal]VQWLMNT
B5: Glucagon analog 8 (peptide)
peptide: HSQGTFTSD[4Pal]SK[4Pal]LD[Aib]RRAQDFVQWLMNT
B6: Glucagon analog 6 (peptide)
peptide: HSQGTFTSDYSK[4Pal]LD[Aib]RRAQDFVQWLMNT
B7: Glucagon analog 4 (peptide)
peptide: HSQGTFTSD[3Pal]SKYLD[Aib]RRAQDFVQWLMNT
B8: Glucagon analog 9 (peptide)
peptide: HSQGT[3Pal]TSD[3Pal]SK[3Pal]LD[Aib]RRAQDFVQWLMNT
B9: Glucagon analog Aib16, q20, D28 (SEQ ID NO: 980) (peptide)
peptide: HSQGTFTSDYSKYLD[Aib]RRA[dQ]DFVQWLMDT
B10: Glucagon analog 3-Pal10, Aib16, q20 (SEQ ID NO: 971) (peptide)
peptide: HSQGTFTSDXSKYLDXRRAXDFVQWLMNT
modifications: 3-Pal at position 10; Aib at position 16; dGln at position 20
B11: Glucagon analog Aib16, q20, D28, E29 (SEQ ID NO: 981) (peptide)
peptide: HSQGTFTSDYSKYLD[Aib]RRA[dQ]DFVQWLMDE

Biological target: glucagon receptor (co-transfected in HEK293 cells with a CRE-luciferase reporter)
Test: cell-based or functional assay

% bioactivity of GCG [%]	EC50 [nM] (SDV), luciferase-based glucagon receptor cAMP reporter assay	Binder
57	0.0359	B1
24	0.0843	B2
54	0.0379	B3
1	2.33	B4
66	0.0309	B5
60	0.0339	B6
76	0.0268	B7
28	0.0714	B8

Biological target: human glucagon receptor (human, UniProt P47871 26-477)
Test: cell-based or functional assay

Chain of human glucagon receptor (P47871 26-477): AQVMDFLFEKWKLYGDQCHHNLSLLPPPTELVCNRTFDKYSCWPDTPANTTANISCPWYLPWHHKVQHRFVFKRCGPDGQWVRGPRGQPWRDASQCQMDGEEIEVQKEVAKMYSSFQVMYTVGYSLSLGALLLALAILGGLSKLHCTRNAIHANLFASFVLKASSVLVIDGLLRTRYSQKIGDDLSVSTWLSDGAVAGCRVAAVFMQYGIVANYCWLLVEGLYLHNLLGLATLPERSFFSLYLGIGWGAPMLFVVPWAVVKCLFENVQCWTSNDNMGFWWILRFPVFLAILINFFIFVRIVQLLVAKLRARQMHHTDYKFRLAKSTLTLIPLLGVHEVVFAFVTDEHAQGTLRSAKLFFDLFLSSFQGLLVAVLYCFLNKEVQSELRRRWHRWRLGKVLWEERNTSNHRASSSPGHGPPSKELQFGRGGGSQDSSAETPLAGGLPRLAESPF

hGcgR EC50 (pM)	Binder
33	B9
86	B10
18	B11

Biological target: human GLP-1 receptor (human, UniProt P43220 24-463)
Test: cell-based or functional assay

hGLP-1R EC50 (pM)	Binder
7480	B9
> 10000	B10
> 10000	B11
